From the supplement of paper PMC10567573 come the findings set out here.

B1: KRT33B (parent)
chain: YQSYFKTIEELQQKILCSKSENAR
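Also: lentivirally expressed fusions sorted by FACS into six bins by GFP to DsRed ratio, PSI derived from sequencing read proportions per bin multiplied by bin number.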

Variants of B1 are the subject of the data set. The data set can be described thus: protein stability index of a GFP-peptide fusion (GPS, HEK-293T) (PSI 1-6); higher = more stable. The conditions noted are these: c terminus: a fixed tail appended.
In the case of YQSYFKTIEELQQKILCSPSENAR, the protein stability index was determined as 2.14.

As to YQSYFKTIEELQQKILCSFSENAR, the protein stability index stood at 1.7. For YQSYFKTIEELQQKILCSLSENAR the value was 1.54; for YQSYFKTIEELQQKILCSVSENAR, 1.7. Then YQSYFKTIEELQQKILCSCSENAR, with 1.84; and YQSYFKTIEELWQKILCSKSENAR, with 1.91; and YQSYFKTIEELVQKILCSKSENAR, with 1.98.

For YQSYFKTIEELFQKILCSKSENAR, the protein stability index was 2.98. For YQSYFKTIEELPQKILCSKSENAR the value was 1.8; for YQSYFKTIEELKQKILCSKSENAR, 2.06. Then YQSYFKTIEELRQKILCSKSENAR, with 2.11; and YQSYFATIEELQQKILCSKSENAR, with 1.43; and YQSYFSTIEELQQKILCSKSENAR, with 2.59. Then YQSYFWTIEELQQKILCSKSENAR, with 2.07; and YQSYFFTIEELQQKILCSKSENAR, with 2.25.

As for YQSYFTTIEELQQKILCSKSENAR, the protein stability index was determined as 1.79. As to YQMYFKTIEELQQKILCSKSENAR, the protein stability index is 1.78. For YQRYFKTIEELQQKILCSKSENAR the value was 1.25; for YQCYFKTIEELQQKILCSKSENAR, 2.11; for YQQYFKTIEELQQKILCSKSENAR, 2.38. For YQSYFKTINELQQKILCSKSENAR the value was 2.69. For YQSYFKTIAELQQKILCSKSENAR the value was 1.98; for YQSYFKTIQELQQKILCSKSENAR, 1.98. With YQSYFKTICELQQKILCSKSENAR, the protein stability index was 1.79. Then YQSYFKTIEELQQKILCSKSENHR, with 1.68.

Take YQSYFKTIEELQQKILCSKSENQR: the protein stability index turned out to be 2.36.

With YQSYFKTIEELQQKILCSKSENCR, the protein stability index was 1.86. Then YQSYFKTIEELQQKILCSKSENPR, with 1.68; and SQSYFKTIEELQQKILCSKSENAR, with 3.62; and IQSYFKTIEELQQKILCSKSENAR, with 2.2. Then YQSYFKTIEELQQKILCWKSENAR, with 1.97. For YQSYFKTIEELQQKILCYKSENAR the value was 2.21. Take YQSYFKTIEELQQKILCNKSENAR: the protein stability index is 1.92. Then YQSYFKTIEELQQKILCVKSENAR, with 1.73. Then YQSYFKTIEELQQKILCPKSENAR, with 1.79. Then YQSYFKTIEELQQKILCRKSENAR, with 2.18. With YQSYFKTSEELQQKILCSKSENAR, the protein stability index amounted to 1.51. On to YQSYFKTAEELQQKILCSKSENAR, for which the protein stability index worked out at 2.44. Take YQSYFKTWEELQQKILCSKSENAR: the protein stability index is 1.94.

Regarding YQSYFKTFEELQQKILCSKSENAR, the protein stability index is 2.01. Then YQSYFKTIEELQQKILCSKSENAW, with 1.15. Then YQSYFKTIEELQQKILCSKSENAI, with 1.79; and YQSYFKTIEELQQKALCSKSENAR, with 2.14; and YQSYFKTIEELQQKVLCSKSENAR, with 1.7. In the case of YQSYDKTIEELQQKILCSKSENAR, the protein stability index amounted to 3.8. For YQSYHKTIEELQQKILCSKSENAR the value was 1.84; for YQSYTKTIEELQQKILCSKSENAR, 2.59; for YQSYFKTIEELQQFILCSKSENAR, 2.02.

As for YQSYFKTIEELQQAILCSKSENAR, the protein stability index worked out at 1.53. For YQSYFKTIEELQQIILCSKSENAR the value was 1.66; for YQSSFKTIEELQQKILCSKSENAR, 1.54.

For YQSHFKTIEELQQKILCSKSENAR, the protein stability index stood at 1.81. Then YQSRFKTIEELQQKILCSKSENAR, with 2.25; and YQSQFKTIEELQQKILCSKSENAR, with 1.58. With YHSYFKTIEELQQKILCSKSENAR, the protein stability index was 2.01. For YKSYFKTIEELQQKILCSKSENAR the value was 3.17. As to YNSYFKTIEELQQKILCSKSENAR, the protein stability index worked out at 2.16. For YQSYFKIIEELQQKILCSKSENAR, the protein stability index is 1.97. Then YQSYFKDIEELQQKILCSKSENAR, with 2.42; and YQSYFKGIEELQQKILCSKSENAR, with 1.8; and YQSYFKTIEELQQKILNSKSENAR, with 1.95. Then YQSYFKTIEELQQKILKSKSENAR, with 2.19. For YQSYFKTIEELQQKILMSKSENAR the value was 2.54; for YQSYFKTIEELQQKIACSKSENAR, 2.13; for YQSYFKTIEELQQKICCSKSENAR, 2.52.

As to YQSYFKTIEELQQKILCSKGENAR, the protein stability index was 1.38.

Consider YQSYFKTIEELQQKILCSKTENAR, for which the protein stability index is 1.87. For YQSYFKTIEELQQKILCSKIENAR the value was 1.92. Then YQSYFKTIEELQQKILCSKAENAR, with 2.02. Regarding YQSYFKTIEELQQKILCSKDENAR, the protein stability index came to 2.32.

In the case of YQSYFKTIEELQQKILCSKMENAR, the protein stability index came to 1.63. Then YQSYFKTIEELQPKILCSKSENAR, with 1.83; and YQSYFKTIEELQFKILCSKSENAR, with 2.04. Then YQSYFKTIEELQEKILCSKSENAR, with 1.81; and YQSYFKTIEELQDKILCSKSENAR, with 1.55. Then YQSYFKTIEELQGKILCSKSENAR, with 2.09; and YQSYFKTIEEDQQKILCSKSENAR, with 1.79; and YQSYFKTIEEMQQKILCSKSENAR, with 1.6. With YQSYFKTIEENQQKILCSKSENAR, the protein stability index is 2.09. For YQSYFKTIEERQQKILCSKSENAR the value was 1.62. For YQSYFKTIEEWQQKILCSKSENAR the value was 2.2. For YQSYFKTIEVLQQKILCSKSENAR the value was 2.28; for YQSYFKTIEPLQQKILCSKSENAR, 2.39; for YQSYFKTIENLQQKILCSKSENAR, 2.1. With YQSYFKTIEFLQQKILCSKSENAR, the protein stability index is 2.13. For YQSYFKTIEQLQQKILCSKSENAR the value was 2.69. YQSYFKTIEDLQQKILCSKSENAR: the protein stability index stood at 2.36.

On to YQSYFKTIESLQQKILCSKSENAR, for which the protein stability index turned out to be 1.65. Then YQSYFKTIEELQQKILCSKSELAR, with 1.86; and YQSYFKTIEELQQKILCSKSEDAR, with 1.82. For YQSYFKTIEELQQKILCSKSEQAR the value was 2.19; for YQSYFKTIEELQQKILCSKSCNAR, 1.79. For YQSYFKTIEELQQKILCSKSWNAR the value was 1.28; for YQSYFKTIEELQQKILCSKSMNAR, 2.13.
